# Assay: yeast display, Sf9 membrane polyspecificity reagent, FACS + sequencing; frameworks hold sequencing errors
# Method in brief: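 Sorting gates, low and high (top ~1%), were placed on anti-HA fluorescence to track expression and on streptavidin fluorescence to track reagent binding. A clone's polyreactivity label is taken from the gate it came out of. The reagent was 10% biotinylated, detergent-solubilized Sf9 membrane, applied for 1 hour at 4 °C to galactose-induced yeast display cells.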
row,Sequence,polyreactivity (PSR sort gate)
1,QVQLVESGGGLVQAGGSLRLTCAASGSIFWPNAMGWYRPAPGKERELVAAISWGTGSTYYADSVKGRFTISRDNAKNTVYLQMNSLKPEDTAVYYCAADGAYLDPYYDYWGQGTQVTVSS,low polyreactivity
2,QVQLVESGGGLVQAGGSLRLTCAASGSIFWRNTMGWYRQAPGKERELVAAIRNVGSTYYADSVKGRFTISRDNAKNTVYLQMNSLKPEDTAVYYCAVVYPARGSGNDSWGQGSQVTVSS,high polyreactivity
3,QVQLVESGGGLVQAGGSLRLTCAASGSIFWWYGVGWYRQAPGKERELVADITSGGGTYYADSVKGRFTISRDNAKNTVYLQMNSLKPEDTAVYYCAADDRAYRFDYYFDYWGQGTQVTVSS,low polyreactivity
4,QVQLVESGGGLVQAGGSLRLTCAASGSIFYYNAMGWYRQAPGKERELVAAISSDGSTYYADSVKGRFTISRDNAKNTVYLQMNSLKPEDTAVYYSAAATLTWSRWGSYYEYDYWGQGTQVTVSS,low polyreactivity
5,QVQLVESGGGLVQAGGSLRLTCAASGSNFQYYAMGWYRQAPGKERELVAAISSGDTTNYADSVKGRFTISRDNAKNTVYLQMNSLKPEDTAVYYCNAEGGWYDWDDYWGQGTQVTVSS,low polyreactivity
6,QVQLVESGGGLVQAGGSLRLTCAASGSNFWSYDMGWYRQAPGKERELVATITSGDSTYYADSVKGRFTISRDNAKNTVYLQMYSLKPEDTAVYYCAAGTYYRRPYWHRDYDYWGQGTQVTVSS,low polyreactivity
7,QVQLVESGGGLVQAGGSLRLTCAASGSTFGSYAMGRYRQAPGKERELVAVAISWSGGNTYYADSVKGRFTNSRDNAKNTFYLQMNSLKPEDTAVYYFAAYGTTGVYRGPGYDYWGQGTQVTVSS,low polyreactivity
8,QVQLVESGGGLVQAGGSLRLTCAASGSTFHLYAMGWYRQAPGKEREFVAAIRGRGGNTYADSVKGRFTISRDNAKNTVYLQMNSLKPEDTAVNYCAAPLLRDLRSPYSYNYWGQGTQVTVSS,low polyreactivity
9,QVQLVESGGGLVQAGGSLRLTCAASGSTFPSYAMGWYRQAPGKERELVAAINSGGGTNYADSVKGRFTISRDNAKNTVYLHMNSLKPEDTAVYYCAKSRYDYTKTEGGYWGQGSQVTVSS,low polyreactivity
10,QVQLVESGGGLVQAGGSLRLTCAASGSTFPYNAMGWYRPATGKERELVASITGGRKKYADSVKGRFTISRDNEKNTVYLQMNRLKREDTAVYYCAADYYSLWIRRDSNYWGQGTQVTVSS,low polyreactivity
11,QVQLVESGGGLVQAGGSLRLTCAASGSTFSGYAMGWYRQAPGKERELVATISGGGSTYYADSVKGRFTISRDNAKNTVYLQMNILKPEDTAVYYCNAQGYGIFTSSLDYWGQGTQVTVSS,low polyreactivity
12,QVQLVESGGGLVQAGGSLRLTCAASGSTFSVYDMGWYRKAPGKERELVAAIDVTGGSTYYADSVKGRFTISRDNAKNTVSLQMNSLKPEDTAVYYCNAGKCYSLYGMYYWGQGTQVTVSS,low polyreactivity
13,QVQLVESGGGLVQAGGSLRLTCAASGTFFMGWYRQAPGKERELVAGISISDGSTYYADSVKGRFTISRDNAKNTVYLQMNSLKPEDTAVYYCAADSHYLYDYWGQGTQVTVSS,low polyreactivity
14,QVQLVESGGGLVQAGGSLRLTCAASGYTFRRTGMGWYRQAPGKERELVAAITNGGSTKYADSVKGRYTISRDNAKNTVYLQMNSLKPEDTAVYDCFYYVYAYDYWGQGTQVTLSS,high polyreactivity
15,QVQLVESGGGLVQAGGSLRLTCAATGSILSRYAMGWYRLAPGKERELVATITRRGGSTFYADSVKGRFTISRDIAKNTVYLQMNSLKPEDTAVYYCAVGRLFWGQGTQVTVSS,low polyreactivity
16,QVQLVESGGGLVQAGGSLRLTCADTGNIFVRNAMGWYRQAPGKERELVADISTGADTNYADSVKGRFTISRDNAKNTFYLQKNSLKPEDTAVYYCAAAAEVGEIGYWPMVYWGQVTQVTVSS,high polyreactivity
17,QVQLVESGGGLVQAGGSLRLTCDASGFTFPFYTMGWYRQEPGKERELVAAISASGGRTYYADSVKGRFTISRDNAKNTVYLQMNSLKPEDTGVYYCATYPTPKYFRWRGDYWGQGTQVTVSS,high polyreactivity
18,QVQLVESGGGLVQAGGSLRLTCDASGSTFYPYAMGWYRQAPWKERELVAAISSRDGRTYYADSVKGRFTISRDNAKNTVYLQMNSLKPEDTAVYYCAATSFNNGHRYDYWGQGTQVTVSS,high polyreactivity
19,QVQLVESGGGLVQAGGSLRLTCSASGYTFPRYAMGWYRQAPGKERELVAVITRRGGSTYYADSVKGRFTISRDNAKNTVYLQMNSLKPEDTSVYYCAASDPSNKSSRPGYSYDSDSWGQGTQVTVSS,high polyreactivity
20,QVQLVESGGGLVQAGGSLRLTFAASGRTFGYYAMGWSRQAPGKEREWVAAISWSGTSTYYADSVKGRFTISRDNAKNTVYLQLNSLKPEDTAVYYCNAVNVAVQWTSRYYYWGHGTQVTVSS,high polyreactivity
21,QVQLVESGGGLVQAGGSLRLTSAASGRIFSHNAMGWCRPAPGKERELVAAITVGGGSTFYADSVKGRFTISRDNAKNTVYLQMNSLKPEDTAVYYCAADYYTQWQTRYDYWGQGTQVTVSS,low polyreactivity

row,Sequence,polyreactivity (PSR sort gate)
1,QVQLVESGGGLVQAGGSLRLTWAASGSTYESNAMGWYRPAPGKERELVAAISSSGGSTYYADSVKGRFTITRDNAKNTVYLQMNSLKPEDTAVYYGNKGGLSDYDYWGQGTQVTVSS,high polyreactivity
2,QVQLVESGGGLVQAGGSLRSSCAASGYTFRYYAMGWSRQAPGKERELVAAITSSSNTTYADSVKGRFTISRDNEKNTVYLQMNSLKPDDTGVYYCNTPYFTGYYWGQGTQVTVSS,high polyreactivity
3,QVQLVESGGGLVQAGGSLRVSCAASGFIFCGYARGWYRQAPGKERELDAAISSSGGSTYYADSVKGRFTISRDNAKNTDYLQMNSLKPEDTAVYYCAKVGRSRRYYYWGQGTQVTVSS,high polyreactivity
4,QVQLVESGGGLVQAGGSLRVSCAASGFIFHYYAMGWYRQAPGKERELVAAITYSGGSTYYADSVKGRFTISRDNAKNTVYLQMNSMKPVDTAVYYCNADSVLDLYWNMDYWGQVTQVTVSS,low polyreactivity
5,QVQLVESGGGLVQAGGSLRVSCAASGFIFLNNAMGWYRQAPGKERELVAAITWSGGSTYYADSVKGRFTISRDNAKNTVYLQMKSLKPEDTAVYYCAADGWLYYGVGYWGQGTQVTVSS,low polyreactivity
6,QVQLVESGGGLVQAGGSLRVSCAASGFTFDQYAMGWYRQAPGKERELVAAISWSGASTYYADSVKGRFTISRDNAKNTDDLQMNSLKPEDTAVYYCAVSRRRIDYDYWGQGTQVTVSS,high polyreactivity
7,QVQLVESGGGLVQAGGSLRVSCAASGFTFRHNAMGWYRQAPGKERELVAVISSTGTYADSVKGRFTISRDNAKNTVYLQMNSLKPEDTAVYYCAAGSDYGGSYAYDYWGQGTQVTVSS,low polyreactivity
8,QVQLVESGGGLVQAGGSLRVSCAASGFTFTRYTMGWYRQAPGKEWELVAAITRSGGNTYYADSVKGRFTISRDNAKNTVYLQMNSLKPEDTAVYYCAARQVSGIGPYDYWGQGTQVTVSS,high polyreactivity
9,QVQLVESGGGLVQAGGSLRVSCAASGNIFVYNAMGWYRQAPGKERELVAAIDSGGSTYYADSVKGRFTISRDNAKNTVYLQMNSLKPEDTAVYYCAADYYSTYRTIYYYWGQGTQVTVSS,low polyreactivity
10,QVQLVESGGGLVQAGGSLRVSCAASGRIFRYTSGWYRQAPAKERELVATINSCGRTYYADSVKGRFTISRDNAKNTVYLQRNCLKPEDTAVYFCAAPYQTKCNKYVHGSPIENDYWGQGTQVTVSS,low polyreactivity
11,QVQLVESGGGLVQAGGSLRVSCAASGRTFSGYTMGWYRQAPGKERELVATIRDRGGSTYYADSVKGRFTISRDNAKNTVYLQMNSLTPEDTAVYYCAARRGRRYYYWGQATQVTVSS,high polyreactivity
12,QVQLVESGGGLVQAGGSLRVSCAASGRTFYANVRGWYRQAPGKERELGAAIAASGGSTYYADSVKGRVTISRDNAKNTVYLQMNRLKPEDTAGYYCYKVVRWPGTYLRYVISDLDYWGQGSQVTVSS,low polyreactivity
13,QVQLVESGGGLVQAGGSLRVSCAASGRTFYRKAMGWYRHAPGKERSLVAAISSGGSTTYADSVKGRFTISRDNAKNTVYLQMISLKPEDTAVYYCAARSHAGSVCPRLKEYDFWGQGTQVTVSS,low polyreactivity
14,QVQLVESGGGLVQAGGSLRVSCAASGSIFDVYTMGWYRQAPGKERELVAAISKRSGRTYYADSVKGRFTISRDNAKNTVYLQMNSLKPEDTAVYYCAKDFGYWGQGTQVTVSS,low polyreactivity
15,QVQLVESGGGLVQAGGSLRVSCAASGSIFPDNAMGWYRQAPGKERELVAAITRGGSTYYADSVKGRFTISRDNAKNTVYLQMNSLKPEDTAVYYCAARRRYLWSYDYWGQGTQVTVSS,high polyreactivity
16,QVQLVESGGGLVQAGGSLRVSCAASGSIFYQYAMGWYRQAPGKERELVAAISTTGGRTYYADSVKGRFTISRDNAKNTVYLQMNSLKPEDTAVYYCAAYKYYGYDYWGQGTQVTVSS,high polyreactivity
17,QVQLVESGGGLVQAGGSLRVSCAASGSTFASYAMGWSRQAAGKVWEFVAAICRSGGSTYYADSVKGRFTISRDNAKNTVSFQMNSREPEDPAVYYWAKSRYDYTIPEGGYWGQGTQATVSS,low polyreactivity
18,QVQLVESGGGLVQAGGSLRVSCAASGYFFHYHAMGWYRHAPGKEREFVAAISQGGGSTYYADSVKGRFTISRDNAKKTVSLQMISLKPEDTAVYYCAADYRSGYREMDYWGQGTQVTVSS,low polyreactivity
19,QVQLVESGGGLVQAGGSLRVSCAPSGRTFSWYAMGWYRQAPGKEREFVAAIRWSGSSTYYADSVKGRFTISRDNAKNTVYLHMNSLKPEDTAVYYCAVAAGIPQRRYYYWGHGTQVTVSS,high polyreactivity
20,QVQLVESGGGLVQAGGSLRVSCDASGFTFFYNAMGRYRQAHGKERELVASISSVGRTNYADSVKGRFRISRDNAKNTVYLQMNSLTPEDTAVYFCAAYRAPATRRRGYYYWGLGTQVTVSS,high polyreactivity

# Source: the nanobody polyreactivity screen of Harvey et al. (2022)
